Results as given in PMC12434095, “LysR-type transcriptional regulator CARR represses the expression of bla CAR-2 and reduces P. diazotrophicus resistance to cefalothin, cefuroxime and cefotaxime” (Frontiers in Cellular and Infection Microbiology, 2025).

Experiments:
Assay in all cases: purified protein
Type in all cases: biochemical, Phytobacter diazotrophicus
[1] = test system: CO/N=C(\C(=O)N[C@@H]1C(=O)N2C(C(=O)O)=C(COC(C)=O)CS[C@H]12)c1csc(N)n1; details: 50 mM HEPES pH 7.5, 25°C, 50 µM ZnSO4, 0.634 µM enzyme, kcat 0.61 in source
[2] = test system: CC(=O)OCC1=C(C(=O)O)N2C(=O)[C@@H](NC(=O)Cc3cccs3)[C@H]2SC1; details: 50 mM HEPES pH 7.5, 25°C, 50 µM ZnSO4, 0.634 µM enzyme
[3] = test system: CO/N=C(\C(=O)N[C@@H]1C(=O)N2C(C(=O)O)=C(COC(N)=O)CS[C@H]12)c1ccco1; details: 50 mM HEPES pH 7.5, 25°C, 50 µM ZnSO4, 1.27 µM enzyme

Substance: CAR-2 (Phytobacter diazotrophicus)
- Km [1]: 33.08 µM
- Vmax [1]: 23.4 µM/min
- kcat [1]: 0.62 s⁻¹
- kcat/Km [1]: 18700 M⁻¹ s⁻¹
- Km [2]: 63.78 µM
- Vmax [2]: 31.8 µM/min
- kcat [2]: 0.84 s⁻¹
- kcat/Km [2]: 13200 M⁻¹ s⁻¹
- Km [3]: 49.28 µM
- Vmax [3]: 16.2 µM/min
- kcat [3]: 0.21 s⁻¹
- kcat/Km [3]: 4260 M⁻¹ s⁻¹
